Source: a protein production outcome set (Wang et al. 2014)

Assay: label from the status in PepcDB records

Sequence	protein production
MIEFTALDDLSLLRESVSLECKLAQGRDGKGALPDDFWPTYSAMANTDGGIVILGVRERKGQFEVAGIENPDKLRTELFNHLNNRQKVSVNLLRDEDVRAWPVEGKTLLVVEIPRARRQQRPVYLRGNPLGGHTYRRLHEGDRPLPDEDVKRMLAEQVEDSRDERILPGYGLDDLHLESLRAYRQLFANRDPSHPWNALADQAFLRQIGGWRQHRETGEAGLTLAGLLMFGQWSSITEAVPLCFLDYQERPADYATTVQWLDRIVPDGTWSGNVFDFYRRVVGKLTADIKVPFVLKGDIRQDDTPTHKALREALVNTLVHADYTGRISVLVVKEPAGFVLRNPGGLRVPAQQALQGGMSDCRNRTMQQMFLMIGLGERAGSGMSRIVHGWRDLGHELHLRESYEPHEHSVLEMFWAKGRGATLASESSEESSEESSEETGKKILHLLREEPSLTASALARRLQLTPRAIEKQLEHHHHHH	not failed
MIEGHGDDSYKYRHPIRSNFSSNVYNKVNLDGLRAHLCGRISAISAYPEPEPYTLEARLADRHALPAASVCVTNGATEAIYLIAQTFRGTNTAILMPTFSEYADACRMHGHKVTSLYTLDAVPEDVRMVWLCNPNNPTGEVRDKKYLTELIAKHPRVCFVIDQSYEYFTLKELFTAQEAAGFPNVILLHSMTKRYAIPGLRLGYVTAHPGLIGRLRTNRMPWSVNQLAIEAGLYLLSEGIPAGLSMKDYLAECARLKSSLEAIGGLEVWPTDTHFMLVCLRFGKAAALKEYLAREEGILIRDASNFEGLDERFFRIATQTPEENDELVGAIAKWMAE	failed
MIELLFPGWLAGILLAIAAGPLGSFVVWRRMSYFGDTLAHASLLGVAFGLLLNINLFSAVIAVTLILALGLVWLERRPYLAVDTLLGIMAHSALSLGLVVVSLMNNVRVDLMAYLFGDLLSVTTEDLWVIGAGVIIVVAVMRWQWRALLSMTISPELAHVDGVKIQRTKLLLMLTTALTIGIAMKFVGALIITSLLIIPAASARRFARTPEQMAIIAVMIGMIAVTGGLAFSAGYNTPAGPSVVLCASLLFIVSLLKPQPA	failed
MIELLISILTYALISLQSFYRKMDRPAASTIGAALMLAFGVMSLKEAVRAIDYNTIMLLFGMMVLTAYLGIAGFFDWLASKIMGFSGNGKRLLFTIVFSSGFLSALFVNDTICVFMTPVVVRVALSAGISPIPLLIALATSANVGSAVTIIGNPQNMLIGLKSGIGFVQFTAKMLPVGVAGIFIVYSVIYVLYRGELGKLRNGKIEVNLNRRLAAKGLLTFALVLILFVTEFYPVSLSAFIGAAIMFAIGGVKPREALEKVDWGLLLLFCNLFIVMHGFEKSYGEKILSMLSFGESFADYLYFSLLTVAGSNLVSNVPFVMMVLPAAKGAAADFWLILAMASTFAGNLTLIGSVANLIVAESAERHGVHLSFFEYLKAGVPVTFATVLVGALLIYIT	failed
MIERGRLGAASRRRATSAHGPIQTTVFMSSGIVFHAVAALAYAVLAGSLWRRLQGRGSVDQASKLTRTGLLGALALHGVALQQAMLGTQHLYIGWALALSAAVWLGLVVFWLESLLIRIDGLQLLLLPAAAIVTAIAALFPQAQLVPHANNPWLRAHLLIALAAYGLITIAALHAMLIALLDRHLHRPLDAPAERSIVGRVLDAQPPLLVQERLLFRVIWIGFVVLTLAVGSGSVASITLTGKFLPFDHKTIFTLLSWATFGVLLLGRHIRGWRGRVALRWTLTGFAFLILAYTGSRFVLEVILHRG	failed
MIERLRGALASASFPVMALLLLSAIVVYPLWTMLFLGAVFAYIVRPVALRINRRIPYLSVSIILAMIVVIMPLVGILVFTVDSIINSAPSLLSLAGSIHVPGAGNLQPSAENTLANLRTVLRDILSGSLNYVVAILQSVPMISLQLFVFLSSTFYFARDGKRLVGYIRTLIPEETRPFMERMASETERVLLSIFYGHFLTALAIGLMAAVGFHLLGYPYAILLGIMTGLFQLIPVIGPWAAYTPLSIYDFVTGNILRGVLVLIFGLFLSTIDIYLRPKLSGKYADIHPMIFLVGFLGGPVVWGVAGFIVGPLVLGLAYAALEAYRMESGGEEVQ	failed
MIEVIILAIALSMDAFAVSIGLGATKQQSKVAPLGIIVALYFGLFQGIMPIIGYLGGKGVLSWAESYTPWIAFLLLFLIGVKMIFDSFSEGIEEDISKITHRVLLILAIATSIDAMAAGFSLTLLPVNPLIACLIIASVTFIFSWLGVLVGTKGGTWLENKAEFVGGITLIVMAIKIIITS	failed
MIEYIIGVIGLLLASVQDFRSREIEDYIWIVLAVFGILFAIYSAITLSNYSILINSISGFVICFILGYMMFLSGIGGGDGKILIGLGALVPKFQMPIYTSLGTLLNLNYIPNFPIMVFINGIFFMVFLPFVILFRNILNGARPKTGKEVILMFFGEKMKVKVAKEQKRLIMGQNDKINFFPASDDEDFSKYGDEEEIWVTPQIPLIIPITLSYLVTPIIGDRILDLLIPF	failed
MIFEIIKIGSQPINFAYPIPLLSLLAFMLSGSGYNELIISYIFAFSFFTAANLWNHLNDAEDDLNAGRNYARFLIEHRKIVTEFVVAFYFVSFLLIFFISKSKEIALLLTGLSVVLTWLYSDKIFIGKIIRRFKEDYKTEVFTYILCSFSFPLSFWTIFSEISQVGVVFTLATGFTYLSGFFLKDLKDISADIKSGYRTLAVVLSPSTLLIISVMLFIASTFVVIFSSLLDVTPTSSLLVLTVYPPILFAIYKFHKEKWKITKNIISSLKIYTYSYLGFLIAFAIGCKL	failed
MIGDGIENSPLLTDLAFPYRLLGAGKESRECLFLLHGSGVDETTLVPLARRIAPTATLVAARGRIPQEDGFRWFERIDPTRFEQKSILAETAAFAAFTNEAAKRHGLNLDHATFLGYSNGANLVSSLMLLHPGIVRLAALLRPMPVLDHVPATDLAGIRTLIIAGAADETYGPFVPALVTLLSRHGAEVDARIIPSGHDIGDPDAAIVRQWLAGPIAIAQAD	not failed
MIGIVAAFEKVKIPEMGKSFGTGWLPPLPSLKDYTEESAQIPEMAEKLGIPTSRKETKTLELPVSIDFRNWCSPIEDQMDLGSCTAHAGVGVVEYFERRAFGKHIDGSRFFVYKTTRNLMGVKGDTGAWLRNTMGALALCGVPPEKYFPYTSRKTPGPDGEPTFDDEPSSFVYSLADNFEALNYFCHDPQGMNLPPEDVILSVKKYLAAGIPSMFGFYGFPSFKDTDVKGGIPFPGPDERSIWGHAVVAVGYDDNMKIRNTLSNKETTGAFLIRNSWGTAWGDKGYGWLPYEYALNKFALDFWSLISMKWVETGNFGLELESSRSRARETLSRDMPLPHALEHHHHHH	not failed
MIGPENCNSVSEPIAYVIILAGGRSSRMGYDKAQVMVDGRRLIDLCLESIASVHAHPIVVSGQDLQLTAAVTQVMEEPAFGGPVAGIAAGMRCCDTKAGLIGVIAVDAPRSGNYLNQLRRVVLTHPEVGVAHAVVEGYDQPLLAVWRYEALTQALHALGSPRNVAAKRLLRSATTPVIAVPVDSSARDYDTVAELSALGRVRLRLEHHHHHH	failed
MIGQFLITFREALEAAIIVAIIIAYLKRTDREEQIRDVWIGVGLSVLASVVLGAIILGLYGGIEEKELFEGIASYLAVIVLTSMIYWMATKGRNIRAEIERKVSKAINPLALVGFTFIVVFREGLETVLFLTPFAIQDLGGTLMGLVSGIIGALILAYLIYGVGMRINLRTFFYYSSILLVFVAAGLAGYGTHELIEWAEEEGMNLGFIEETAYNLGIPEDSVFHHKGVIGSIFAVLFGYSVKMEWGRVIVQFGYLIVTLYLVLRAYGQETPTAKAEK	failed
MIGVLSGFFVVWAIILVGMFVGRRNILGENARSVLSSLTFFVASPALLFETLSKAKLHDVFAAPLLVTAVGAVVTGLLFFLIAKFWLKRAMPEALMSSMSSSLANSANLGIPIAVFVLGDASYVAPLLIFQLAFFTPLYLMALDASTSSHRTTPLRFLLMIVKNPMIVGSALGLLVAGTGFHVPTLILEPIHLIGGAAIPAMLMSFGMSLNGSKPLRKASGRRVDTLLASGFKLIVHPLIAYLFARFALGMDGHALFAVVVTSALPTAQNVFVAANRYQAGITVAKDTVLITTIVAVPAMIAVALLLT	failed
MIHDLLLACRSHNPEQLGIKAFNETTVIDQFIHPCEREIFMDIIKIIKVYQEVEQFTHSSGRKSDTHGELPDSLHGYYLLNLAKGIEMALEEYYAEIGRLEKYCLGNERNSLSYVYNALYAKFPLLVFMRNLITEIHVLNLRGCVLLHNLHQQCEHGDIQLEKAIKIIMKPVKNAFFSSLAHWLLFGVIDDVHSEFFIKFTPTDAVDGSSFSKSATCSLLSAEKNPEDYIWQYEVNMSQLPGFFSIVLAEKVLFVGQTVLVFKMGRNVKVKNKTDPLAAKLAELDSDDIYQLWSGRESEFFKMVVDLSNEDTINVFRLEKVIIDIKNYVSARLSEIAVNEVDLERQMGLIKDFFLLGRGEFYLEFCSQMVGTMETYREERFKNVTRSFELAATVTGITDDLDKFSLICQRSTSEPDDTSDFNFLQGLSLKYEYEWPLNLLFSPTTIERYNNIFRFLLIIRTYQYEIQRVWAKQTWRAKSAKDVPPNNKIITLRNYLMFFLNNMQYYIQVDVLESQFGILMNVIKSRSDFEVIQRAHTVFLANVLSHCFLLNESETQLNVTGSQNRNPIYGTLLKLFGICEKFAHMTQTKDPSDDLEDEVDQLNESFGVQIASLIQLLVDVKSASCLGPLSQLLLRLDFNCWFSASHNTSA	failed
MIHDVDPTNDKYPAALRILHWVRALLTLGLIAAGWMMTVLADTVTEKFTLLYPWHKSFGVLVFLIVLAQLAIRAMSRLPGPAPLPAQERLLSQAVHVAMYALLLLVPLMGYAMSSSFTDSDGVFFFGIHLPELLPKDDDRFRLFQFLHKTLAYSLLALVILHVAGALKHRYFDKDRRTDVLPRII	failed
MIHFSINKNLFLQALNTTKRAISSKNAIPILSTVKIDVTNEGITLIGSNGQISIENFISQKNEDAGLLITSLGSILLEASFFINVVSSLPDVTLDFKEIEQNQIVLTSGKSEITLKGKDSEQYPRIQEISASTPLILETKLLKKIINETAFAASTQESRPILTGVHFVLSQHKELKTVATDSHRLSQKKLTLEKNSDDFDVVIPSRSLREFSAVFTDDIETVEIFFANNQILFRSENISFYTRLLEGNYPDTDRLIPTDFNTTITFNVVNLRQSMERARLLSSATQNGTVKLEIKDGVVSAHVHSPEVGKVNEEIDTDQVTGEDLTISFNPTYLIDSLKALNSEKVTISFISAVRPFTLVPADTDEDFMQLITPVRTN	not failed
MIHGFLCSTKSALPHPLDDPAFVTASACRLASRPFRFMPQSSRRQNRSGTLVFANWNYVLLLIGVALIVVGFTAMYLEGQYLGFISLYVSPVLIIGGYAEIIYALLWAPDEQSAAEEQ	failed
MIHYYKLFWINALNIKGRARRKEFWYPFLMNILINIMLEIIFFLLPIPAIIEDTVGWIVYILILVAMFTVTVRRFHDVGMTMLIPIIIFLIAVINDFSEFINSDIPTLDNSALTVIAVIFGVVYIVILIVSLAVCCTSGQKETNQYGVNPKAVE	failed
MIIAGLDVGTTKVTTVIGELAPDGVLDIIGEGTVPSQGLRRGVVVNLERTTEAIRQSLFQAERVAGVKVERVVVGVGGPHLKSVTSHGLAAIRRGHTIAEADVERAIEQAKAYPFEGELELLHALPLEFKVDGQEGIRDPVGMAGVRLEVDVHLIAAGRGPLANLRRAVEEAGLALDAVCVQALASGLAVLTPEEEEMTVLLLDIGGGTTDVAVFRGGRLAHSAVVPLGGDHVTHDIAQLLKIPFEEAERVKRKYGAALPELADPELVLEINQEGGALGEVPAPELARIIRPRMREILHLARQSVDETLGPLEIQVNRVVLTGGGALLRGTDLLARQQYGLPVRVGKPQGVSGLTDVVASPAHAAAVGLVRYGASLPLKPQEAKRIREKPEDKPKGEGLWARIKEFLSNLF	failed
MIIETERLLLRPFNEQDVDALYLMNSNPAMLKYIPTAPFTDREQARELFHNVILQDYQQRGFGRWAVEHKADNRVIGFCGPKFIPEFNEVEIGYRYFPEYWGKGIGTEAAEAALSVFPQFGIKQTIALILEGNLGSETVAKRVGMYWREHSEFMGHK	failed
